Measurements from patent US20210338751A1 (LUMEN BIOSCIENCE, published 2021).

Assays:
[1] = molecular target: T1, Clostridium difficile toxin B (TcdB) (Clostridium difficile, UniProt P18177 2-2366); assay: cell-based or functional assay
[2] = molecular target: T1, Clostridium difficile toxin B (TcdB); assay: method not stated
[3] = molecular target: T2, recombinant HuNoV GI.1 P domain (Human Norovirus (HuNoV) GI.1); assay: ELISA on recombinant HuNoV GI.1 P domain, Spirulina-expressed Ni-NTA purified protein stored at 4 C
T2 construct: domain: Protrusion (P) domain

[4] = molecular target: T2, recombinant HuNoV GI.1 P domain; assay: ELISA on recombinant GI.1 P domain
GI.1 VLPs = molecular target: T3, GI.1 VLPs (human norovirus genotype GI.1); assay: blocking of GI.1 VLP binding to pig gastric mucin (HBGA)
T3 construct: virus-like particle

[5] = molecular target: T2, recombinant HuNoV GI.1 P domain; assay: ELISA on recombinant HuNoV GI.1 P domain, Spirulina-expressed Ni-NTA purified protein after freeze-drying
[6] = molecular target: T1, Clostridium difficile toxin B (TcdB); assay: assay not given; unlabelled list of VHH names and values at the right of the sheet, the same values stand under KD in Table 6 of the text, which prints the unit of 5D as mM
[7] = molecular target: T4, recombinant HuNoV GII.10 P domain (Human Norovirus (HuNoV) GII.10); assay: ELISA on recombinant HuNoV GII.10 P domain, Spirulina-expressed Ni-NTA purified protein after freeze-drying
T4 construct: domain: Protrusion (P) domain

[8] = molecular target: T5, recombinant HuNoV GII.2 P domain (Human Norovirus (HuNoV) GII.2); assay: BLI, biotin tagged GII.2 P domain at 100 nM as antigen
T5 construct: domain: Protrusion (P) domain

[9] = molecular target: T4, recombinant HuNoV GII.10 P domain; assay: ELISA on recombinant HuNoV GII.10 P domain, Spirulina-expressed Ni-NTA purified protein stored at 4 C

Binder | Adherence Score at TcdB 0.00001 ng/ml, VHH 100 ng/ml total; none: 7 [1] | Adherence Score at TcdB 0.0001 ng/ml, VHH 100 ng/ml total; none: 7 [1] | Adherence Score at TcdB 0.001 ng/ml, VHH 100 ng/ml total; none: 6 [1] | Adherence Score at TcdB 0.01 ng/ml, VHH 100 ng/ml total; none: 5 [1] | Adherence Score at TcdB 0.1 ng/ml, VHH 100 ng/ml total; none: 2 [1] | Adherence Score at TcdB 1 ng/ml, VHH 100 ng/ml total; none: 1 [1] | Adherence Score at TcdB 10 ng/ml, VHH 100 ng/ml total; none: 1 [1] | Kd [2] [nM] | further results
5D+E3+7F (other) VHH 5D: QVQLVESGGGLVQPGGSLRLSCEASGFTLDYYGIGWFRQPPGKEREAVSYISASARTILYADSVKGRFTISRDNAKNAVYLQMNSLKREDTAVYYCARRRFSASSVNRWLADDYDVWGRGTQVAVSSEPKTPKPQ VHH E3: QVQLVESGGGLVQTGGSLRLSCASSGSIAGFETVTWSRQAPGKSLQWVASMTKTNNEIYSDSVKGRFIISRDNAKNTVYLQMNSLKPEDTGVYFCKGPELRGQGIQVTVSSEPKTPKPQ VHH 7F: DVQLQASGGGLVQAGGSLRLSCVASARTFSSYAMGWFRQAPGKEREFVAAISWSGASTDYADSVKGRFTISRDNAKKTVYLQMNTLKPEDTAVYYCAAHHITPTGSYYYSEPLPVDMVYDYWGQGTQVTVSSEPKTKTTTSGR | 7 | 7 | 7 | 7 | 7 | 7 | 3 | – | –
5D+E3+2D (other) VHH 5D: QVQLVESGGGLVQPGGSLRLSCEASGFTLDYYGIGWFRQPPGKEREAVSYISASARTILYADSVKGRFTISRDNAKNAVYLQMNSLKREDTAVYYCARRRFSASSVNRWLADDYDVWGRGTQVAVSSEPKTPKPQ VHH E3: QVQLVESGGGLVQTGGSLRLSCASSGSIAGFETVTWSRQAPGKSLQWVASMTKTNNEIYSDSVKGRFIISRDNAKNTVYLQMNSLKPEDTGVYFCKGPELRGQGIQVTVSSEPKTPKPQ VHH 2D: QVKLQQSGGGLVQAGGSLRLSCAASGTFSRYAMGWFRQAPGKEREFVAAINWTGGSTYYADSVKGRFTISGDNAKNTVYLQMNSLKPGDTAVYYCAAEVHPGDYGLTYMQSQYEYDYWGQGTQVTVSSEPKTPKPTTSGR | 7 | 7 | 7 | 7 | 7 | 6.1 | 2.1 | – | –
5D+7F+5E (other) VHH 5D: QVQLVESGGGLVQPGGSLRLSCEASGFTLDYYGIGWFRQPPGKEREAVSYISASARTILYADSVKGRFTISRDNAKNAVYLQMNSLKREDTAVYYCARRRFSASSVNRWLADDYDVWGRGTQVAVSSEPKTPKPQ VHH 7F: DVQLQASGGGLVQAGGSLRLSCVASARTFSSYAMGWFRQAPGKEREFVAAISWSGASTDYADSVKGRFTISRDNAKKTVYLQMNTLKPEDTAVYYCAAHHITPTGSYYYSEPLPVDMVYDYWGQGTQVTVSSEPKTKTTTSGR VHH 5E: VQLVESGGGLVQAGGSLRLSCAASGLMFGAMTMGWYRQAPGKEREMVAYITAGGTESYSESVKGRFTISRINANNMVYLQMTNLKVEDTAVYYCNAHNFWRTSRNWGQGTQVTVSSEPKTPKP | 7 | 7 | 7 | 7 | 7 | 4 | 1 | – | –
anti-TcdB VHH E3 (VHH) VHH: QVQLVESGGGLVQTGGSLRLSCASSGSIAGFETVTWSRQAPGKSLQWVASMTKTNNEIYSDSVKGRFIISRDNAKNTVYLQMNSLKPEDTGVYFCKGPELRGQGIQVTVSSEPKTPKPQ | – | – | – | – | – | – | – | 0.03 | –
E3+7F+2D (other) VHH E3: QVQLVESGGGLVQTGGSLRLSCASSGSIAGFETVTWSRQAPGKSLQWVASMTKTNNEIYSDSVKGRFIISRDNAKNTVYLQMNSLKPEDTGVYFCKGPELRGQGIQVTVSSEPKTPKPQ VHH 7F: DVQLQASGGGLVQAGGSLRLSCVASARTFSSYAMGWFRQAPGKEREFVAAISWSGASTDYADSVKGRFTISRDNAKKTVYLQMNTLKPEDTAVYYCAAHHITPTGSYYYSEPLPVDMVYDYWGQGTQVTVSSEPKTKTTTSGR VHH 2D: QVKLQQSGGGLVQAGGSLRLSCAASGTFSRYAMGWFRQAPGKEREFVAAINWTGGSTYYADSVKGRFTISGDNAKNTVYLQMNSLKPGDTAVYYCAAEVHPGDYGLTYMQSQYEYDYWGQGTQVTVSSEPKTPKPTTSGR | 7 | 7 | 7 | 7 | 6 | 4 | 1 | – | –
Nano94-TxnA (VHH, also called SP835) VHH: QVQLQESGGGLVQAGGSLRLSCAASGRMFSINSMGWYRQAPGKERELVATISEAGTTTYADSVRGRFTIARDNAKNTVYLQMNSLNPEDTAVYYCNAYIQLDSTIWFRAYWGQGTQVTVSS | – | – | – | – | – | – | – | – | EC50 [3]: 27.3 nM; EC50 [4]: 50.1 nM; IC50 (read off the curve) (GI.1 VLPs): ~2 µg/mL; EC50 [5]: 36.7 nM
Nano94-MBP (VHH, also called SP836) VHH: QVQLQESGGGLVQAGGSLRLSCAASGRMFSINSMGWYRQAPGKERELVATISEAGTTTYADSVRGRFTIARDNAKNTVYLQMNSLNPEDTAVYYCNAYIQLDSTIWFRAYWGQGTQVTVSS | – | – | – | – | – | – | – | – | IC50 (read off the curve) (GI.1 VLPs): ~2 µg/mL
anti-TcdB VHH 5D (VHH) VHH: QVQLVESGGGLVQPGGSLRLSCEASGFTLDYYGIGWFRQPPGKEREAVSYISASARTILYADSVKGRFTISRDNAKNAVYLQMNSLKREDTAVYYCARRRFSASSVNRWLADDYDVWGRGTQVAVSS | – | – | – | – | – | – | – | 0.65 | Kd [6]: 0.65 nM
anti-TcdB VHH 7F (VHH) VHH: QVQLVESGGGLVEAGGSLRLSCVVTGSSFSTSTMAWYRQPPGKQREWVASFTSGGAIKYTDSVKGRFTMSRDNAKKMTYLQMENLKPEDTAVYYCALFINAVSGSSWGRGTQVTVSS | – | – | – | – | – | – | – | 8.8 | –
anti-TcdB VHH C6 (VHH) VHH: VQLVESGGGLVQAGESLRLSCVVSESIFRINTMGWYRQTPGKQREVVARITLRNSTTYADSVKGRFTISRDDAKNTLYLKMDSLKPEDTAVYYCHRYPLIFRNSPYWGQGTQVTVSS | – | – | – | – | – | – | – | 0.89 | –
Nano26-MBP (VHH, not shown: large carriers, also called SP834) VHH: QVQLQESGGGLVQPGGSLRLSCTAPRIIFFMYDVGWYRQAPEKQRELVAQINSDVSTKYADSVKGRFTISRDNAKRTVYLQMNDLKPEDAAVYYCNVRRASADYWGQGTQVTVSS | – | – | – | – | – | – | – | – | EC50 [7]: 2.29 nM; Kd [8]: 21.9 nM; kon [8]: 172000 M⁻¹ s⁻¹; EC50 [9]: 2.75 nM
anti-TcdB VHH B12 (VHH) VHH: VQLVESGGGLVQAGDSLTLSCAASESTFNTFSMAWFRQAPGKEREYVAAFSRSGGTTNYADSVKGRATISTDNAKNTVYLHMNSLKPEDTAVYFCAADRPAGRAYFQSRSYNYWGQGTQVTVSS | – | – | – | – | – | – | – | 0.07 | –
